# Measurements from article PMC9888711, “Pneumococcal capsule expression is controlled through a conserved, distal cis-regulatory element during infection” (PLOS Pathogens, 2023).
# Several values for one entry are separate records, joined by “and”; a condition that tells them apart may be missing. Identical values can stand only once.
# B1: 21-CE SpxR-only (dsDNA)
# DNA 1: GTGTACTAGAGTAGTTTGAAA
# DNA 2: TTTCAAACTACTCTAGTACAC
# B2: 21-CE CpsR-only (dsDNA)
# DNA 1: GTGTGAGATATTATATTGAAA
# DNA 2: TTTCAATATAATATCTCACAC
# B3: 21-CE (dsDNA)
# DNA 1: GTGTACTATATTATATTGAAA
# DNA 2: TTTCAATATAATATAGTACAC
# B4: 37-CE 5' (10 bp) (dsDNA)
# DNA 1: TGTGTACTAT
# DNA 2: ATAGTACACA
# B5: 37-CE (dsDNA)
# DNA 1: TGTGTACTATATTATATTGAAACTAGAATAGTACACA
# DNA 2: TGTGTACTATTCTAGTTTCAATATAATATAGTACACA
# B6: 37-CE spacer (17 bp) (dsDNA)
# DNA 1: ATTATATTGAAACTAGA
# DNA 2: TCTAGTTTCAATATAAT
# B7: 21-CE Neither (dsDNA)
# DNA 1: GTGTGAGAGAGTAGTTTGAAA
# DNA 2: TTTCAAACTACTCTCTCACAC
# B8: 37-CE 5'+10 (dsDNA)
# DNA 1: TGTGTACTATATTATATTGA
# DNA 2: TCAATATAATATAGTACACA
# B9: CpsR (SPD_0064), recombinant (natural protein)
# chain: MEKENRGKNMAIPKYQYIKDELKNKIISGQFSSGDKFYTEAELISMYDVSSITVVRALNDLAKDGYIVRQQGKGTFVSRARKHKLVEFSDIELFNAKDDKVTVLSIERGNKLVYLEKLGLRGDQFYYKIERIRESNGVVYIYHTSYIPEQYINANYPNLEYYSSIYNRFKLDYHIHMNDEHFEEINEIVFPTPEHAASVLGVDEQFPTVLQTKITKLESTGQVLEYSETYKRSDYYKIKFISCDRDH
# notes: CpsR (also called AgaR), transcription factor of Streptococcus pneumoniae D39, locus SPD_0064; 65.72 kDa as a dimer; cpsR amplified from D39 genomic DNA into pE-SUMO; also called AgaR; source: E. coli T7 Express lysY/Iq, purified (Ni-NTA, Ulp1 cleavage, SEC)
# B10: 37-CE 3'+10 (dsDNA)
# DNA 1: TGAAACTAGAATAGTACACA
# DNA 2: TGTGTACTATTCTAGTTTCA
# Columns and labels:
# [1] = biological target: SpxR (SPD_0969), full-length recombinant (Streptococcus pneumoniae D39); experiment: SEC-MALS; Superdex 200 Increase 10/300 GL, 50 mM Tris-Cl pH 7.0, 500 mM NaCl, 1 mM TCEP, 70 uM, 25 C; no DNA
# [2] = biological target: SpxR (SPD_0969), full-length recombinant (Streptococcus pneumoniae D39); experiment: SEC; Superose 6 Increase 10/300 GL, 50 mM Tris-Cl pH 7.0, 500 mM NaCl, 1 mM TCEP; 300 uL at 70 uM; calibrated with molecular weight standards
# [3] = biological target: SpxR (SPD_0969), full-length recombinant (Streptococcus pneumoniae D39); experiment: negative stain electron microscopy; SpxR with 37-CE DNA in high salt (50 mM Tris pH 7.0, 500 mM NaCl, 1 mM TCEP); 3D reconstruction, C2 symmetry, 20.9 A
# [4] = biological target: SpxR (SPD_0969), full-length recombinant (Streptococcus pneumoniae D39); experiment: negative stain electron microscopy; SpxR with 37-CE DNA in low salt (final 50 mM NaCl, HEPES pH 7.5, 5 mM MgCl2, 1 mM CaCl2); 3D reconstruction, C3 symmetry, 21.5 A
# [5] = biological target: T1, CpsR (Streptococcus pneumoniae D39, UniProt A0A0H2ZMA3 1-247); experiment: EMSA; EMSA: 20 mM HEPES pH 7.2, 50 mM NaCl, 5 mM MgCl2, 1 mM CaCl2, 0.1 mM EDTA, 12% glycerol, 10 mM DTT, 0.5 uM DNA, 400 ng poly(dI-dC); FP: same salts, 2% glycerol, 10 nM DNA (high salt 500 mM NaCl; Fig 5 legend says Tris pH 7.0); temperature not stated; conditions: protein: recombinant; tags: His6-SUMO removed by Ulp1; chain copies: 2; label: 6-FAM forward; blunt
# [6] = biological target: T2, SpxR (Streptococcus pneumoniae D39, UniProt A0A0H2ZR90 1-425); experiment: fluorescence polarization; 50 mM NaCl; EMSA: 20 mM HEPES pH 7.2, 50 mM NaCl, 5 mM MgCl2, 1 mM CaCl2, 0.1 mM EDTA, 12% glycerol, 10 mM DTT, 0.5 uM DNA, 400 ng poly(dI-dC); FP: same salts, 2% glycerol, 10 nM DNA (high salt 500 mM NaCl; Fig 5 legend says Tris pH 7.0); temperature not stated; conditions: protein: recombinant; tags: His6-SUMO removed by Ulp1; chain copies: 3; label: 6-FAM forward; blunt
# [7] = biological target: T3, SpxRDBD (Streptococcus pneumoniae D39, UniProt A0A0H2ZR90 1-63); experiment: EMSA; EMSA: 20 mM HEPES pH 7.2, 50 mM NaCl, 5 mM MgCl2, 1 mM CaCl2, 0.1 mM EDTA, 12% glycerol, 10 mM DTT, 0.5 uM DNA, 400 ng poly(dI-dC); FP: same salts, 2% glycerol, 10 nM DNA (high salt 500 mM NaCl; Fig 5 legend says Tris pH 7.0); temperature not stated; conditions: protein: recombinant; tags: His6-SUMO removed by Ulp1; label: 6-FAM forward; blunt
# [8] = biological target: T2, SpxR; experiment: EMSA; shift begins at 312 nM protein; competed by unlabeled 37-CE; EMSA: 20 mM HEPES pH 7.2, 50 mM NaCl, 5 mM MgCl2, 1 mM CaCl2, 0.1 mM EDTA, 12% glycerol, 10 mM DTT, 0.5 uM DNA, 400 ng poly(dI-dC); FP: same salts, 2% glycerol, 10 nM DNA (high salt 500 mM NaCl; Fig 5 legend says Tris pH 7.0); temperature not stated; conditions: protein: recombinant; tags: His6-SUMO removed by Ulp1; chain copies: 3; label: 6-FAM on forward strand 5' (EMSA, FP); blunt
# [9] = biological target: T1, CpsR; experiment: EMSA; shift begins at 625 nM protein; competed by unlabeled 37-CE; EMSA: 20 mM HEPES pH 7.2, 50 mM NaCl, 5 mM MgCl2, 1 mM CaCl2, 0.1 mM EDTA, 12% glycerol, 10 mM DTT, 0.5 uM DNA, 400 ng poly(dI-dC); FP: same salts, 2% glycerol, 10 nM DNA (high salt 500 mM NaCl; Fig 5 legend says Tris pH 7.0); temperature not stated; conditions: protein: recombinant; tags: His6-SUMO removed by Ulp1; chain copies: 2; label: 6-FAM on forward strand 5' (EMSA, FP); blunt
# [10] = biological target: T3, SpxRDBD; experiment: EMSA; strongest of the extended truncations; EMSA: 20 mM HEPES pH 7.2, 50 mM NaCl, 5 mM MgCl2, 1 mM CaCl2, 0.1 mM EDTA, 12% glycerol, 10 mM DTT, 0.5 uM DNA, 400 ng poly(dI-dC); FP: same salts, 2% glycerol, 10 nM DNA (high salt 500 mM NaCl; Fig 5 legend says Tris pH 7.0); temperature not stated; conditions: protein: recombinant; tags: His6-SUMO removed by Ulp1; label: 6-FAM forward; blunt
# [11] = biological target: the molecule itself; experiment: SEC; Superose 6 Increase 10/300 GL, 50 mM Tris-Cl pH 7.0, 500 mM NaCl, 1 mM TCEP; 300 uL at 70 uM; calibrated with molecular weight standards
# [12] = biological target: T3, SpxRDBD; experiment: EMSA; second to 5'+10; EMSA: 20 mM HEPES pH 7.2, 50 mM NaCl, 5 mM MgCl2, 1 mM CaCl2, 0.1 mM EDTA, 12% glycerol, 10 mM DTT, 0.5 uM DNA, 400 ng poly(dI-dC); FP: same salts, 2% glycerol, 10 nM DNA (high salt 500 mM NaCl; Fig 5 legend says Tris pH 7.0); temperature not stated; conditions: protein: recombinant; tags: His6-SUMO removed by Ulp1; label: 6-FAM forward; blunt
molecule,measurement,setting,value
"SpxR (SPD_0969), full-length recombinant (natural protein)",stoichiometry N,[1],4 and 8
same,stoichiometry N,[2],4
same,stoichiometry N,[3],4
same,stoichiometry N,[4],3
B1,binding result,[5],no binding
same,Kd,[6],56 nM
B2,binding result,[7],no binding
same,Kd,[6],104 nM
B3,Kd,[6],71 nM
B4,binding result,[7],no binding
same,binding result,[5],no binding
B5,binding result,[8],binds
same,binding result,[9],binds
B6,binding result,[7],no binding
same,binding result,[5],no binding
B7,binding result,[7],no binding
same,binding result,[5],no binding
B8,binding result,[5],binds
same,binding result,[10],binds
B9,stoichiometry N,[11],2
B10,binding result,[5],no binding
same,binding result,[12],binds
